# Laboratory results from US20250121081A1 (JIANGSU HENGRUI PHARMACEUTICALS, published 2025).
# Key:
# [1] = target: T1, mouse ROR1-His (Cat. #RO1-M522, Acro) antigen (mouse, UniProt Q9Z139 30-403); assay: SPR (Biacore T200), IgG captured on Protein A chip, antigen as analyte
# T1 construct: Bought His-tagged antigen; not shown: His tag
# Procedure: (§1) The anti-ROR1 antibody was analyzed by Biacore T200 (Cytiva) for affinity characterization and binding kinetics. The IgG antibody was subjected to affinity capture by a Protein A biosensor chip (Cat. #29127556, Cytiva), and then a mouse ROR1-His (Cat. #RO1-M522, Acro) antigen and a rat ROR1-His (Cat. #RO1-R5221, Acro) antigen that were diluted with the HBS-EP buffer (pH 7.4, Cat. #BR-1006-69, Cytiva) to a series of concentrations were allowed to flow over the surface of the chip. The antigen-antibody binding kinetics was tracked for 3 min and the dissociation kinetics was tracked for 15 min. Reaction signals were detected in real time using a Biacore T200 instrument to obtain binding and dissociation curves. After dissociation was complete in each cycle, the biosensor chip was washed with 10 mM Gly-HCl at pH 1.5 (Cat. #BR-1003-54, Cytiva) for regeneration. The data obtained were analyzed with BIAevaluation software of Cytiva using a 1:1 (Langmuir) binding model.
# [2] = target: T2, rat ROR1-His (Cat. #RO1-R5221, Acro) antigen (rat, UniProt D3ZZ97 30-406); assay: as above
# T2 construct: Bought His-tagged antigen; not shown: His tag
# Procedure: as §1
# [3] = target: T3, human ROR1 (Cat. #19771-H08H, Sino Biological) antigen (human, UniProt Q01973 30-403); assay: SPR (Biacore T200), IgG captured on Protein A chip, human ROR1 as analyte, 1:1 model
# T3 construct: Bought soluble antigen used as SPR analyte
# T3 sequence (Q01973 30-403 limits assumed): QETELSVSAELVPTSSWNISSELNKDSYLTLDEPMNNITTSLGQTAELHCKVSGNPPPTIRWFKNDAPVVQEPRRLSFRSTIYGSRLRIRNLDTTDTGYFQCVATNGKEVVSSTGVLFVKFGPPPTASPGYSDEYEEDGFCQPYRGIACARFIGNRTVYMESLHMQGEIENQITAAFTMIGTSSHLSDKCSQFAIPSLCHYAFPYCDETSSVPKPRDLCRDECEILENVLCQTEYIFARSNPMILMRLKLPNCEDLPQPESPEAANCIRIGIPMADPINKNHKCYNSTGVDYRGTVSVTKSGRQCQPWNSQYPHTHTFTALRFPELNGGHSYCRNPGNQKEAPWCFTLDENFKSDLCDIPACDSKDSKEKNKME
# Procedure: as §1, with “a human ROR1” for “a mouse ROR1-His”, “(Cat. #19771-H08H, Sino Biological)” for “(Cat. #RO1-M522, Acro) antigen and a rat ROR1-His (Cat. #RO1-R5221, Acro)”, “that was” for “that were”, “concentrations was” for “concentrations were”, “for 10” for “for 15”
# [4] = target: T4, human ROR1 on cells (ROR1-CHO-K1, Jeko-1, MDA-MB-231, HCC827/ROR1) (human, UniProt Q01973 30-937); assay: cell-based or functional assay
# T4 sequence (Q01973 30-937 limits assumed): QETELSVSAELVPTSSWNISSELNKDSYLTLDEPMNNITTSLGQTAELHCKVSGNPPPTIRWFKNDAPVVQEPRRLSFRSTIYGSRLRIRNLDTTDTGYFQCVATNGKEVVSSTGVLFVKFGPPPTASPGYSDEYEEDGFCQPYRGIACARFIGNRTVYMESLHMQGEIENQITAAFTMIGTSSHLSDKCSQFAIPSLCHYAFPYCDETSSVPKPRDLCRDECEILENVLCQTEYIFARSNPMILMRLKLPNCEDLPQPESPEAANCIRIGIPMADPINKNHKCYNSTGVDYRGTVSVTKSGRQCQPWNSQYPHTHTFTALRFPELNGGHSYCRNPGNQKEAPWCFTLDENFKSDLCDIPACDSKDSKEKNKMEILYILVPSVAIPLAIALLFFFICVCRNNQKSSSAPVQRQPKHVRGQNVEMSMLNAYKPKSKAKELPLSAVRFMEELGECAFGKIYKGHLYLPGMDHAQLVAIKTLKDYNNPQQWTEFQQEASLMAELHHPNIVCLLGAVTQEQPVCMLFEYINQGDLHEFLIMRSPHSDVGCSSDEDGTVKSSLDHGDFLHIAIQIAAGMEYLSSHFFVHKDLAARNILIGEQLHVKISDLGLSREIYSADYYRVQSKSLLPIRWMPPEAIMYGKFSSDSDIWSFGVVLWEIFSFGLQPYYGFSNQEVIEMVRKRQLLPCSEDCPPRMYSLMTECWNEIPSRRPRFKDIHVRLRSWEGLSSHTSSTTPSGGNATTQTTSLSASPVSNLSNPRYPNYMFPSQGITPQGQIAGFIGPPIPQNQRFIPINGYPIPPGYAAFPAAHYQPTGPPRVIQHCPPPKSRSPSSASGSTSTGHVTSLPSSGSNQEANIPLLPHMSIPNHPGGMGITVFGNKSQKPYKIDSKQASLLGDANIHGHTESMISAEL
# [5] = target: T4, human ROR1 on cells (ROR1-CHO-K1, …); assay: cell-based or functional assay; remark: listed apart in the source
# [6] = target: T4, human ROR1 on cells (ROR1-CHO-K1, …); assay: flow cytometry on Jeko-1 cells
# Procedure: (§2) ROR1-CHO-K1 cells (Example 1), Jeko-1 cells (ATCC, CRL-3006), or MDA-MB-231 cells (ATCC, CRM-HTB-26) were separately suspended in a FACS buffer (2% fetal bovine serum (Gibco, 10099141) and PBS at pH 7.4 (Sigma, P4417-100TAB) to prepare a cell suspension at 1× 10⁶ cells/mL, and the suspension was then added to a 96-well round-bottom plate at 100 μL/well. After centrifugation and removal of the supernatant, the test antibody that was diluted with the FACS buffer to different concentrations was added at 50 μL/well. The plate was incubated in the dark in a 4° C. refrigerator for 1 h. The plate was washed 3 times with the FACS buffer by centrifugation at 500 g, and a fluorescent secondary antibody at a working concentration was added. The plate was incubated in the dark in the 4° C. refrigerator for 40 min. The plate was washed 3 times with the FACS buffer by centrifugation at 500 g and tested on a BD FACSCantoII flow cytometer for geometric mean fluorescence intensity, and the EC₅₀ values for the binding of the antibody to the cells expressing ROR1 were calculated.
# [7] = target: T4, human ROR1 on cells (ROR1-CHO-K1, …); assay: flow cytometry on MDA-MB-231 cells
# Procedure: as §2
# [8] = target: T4, human ROR1 on cells (ROR1-CHO-K1, …); assay: flow cytometry on ROR1-CHO-K1 cells
# Procedure: as §2
# [9] = target: T2, rat ROR1-His (Cat. #RO1-R5221, Acro) …; assay: SPR (Biacore T200), IgG captured on Protein A chip, rat ROR1-His as analyte, 1:1 model
# Procedure: as §1
# [10] = target: T1, mouse ROR1-His (Cat. #RO1-M522, Acro) …; assay: SPR (Biacore T200), IgG captured on Protein A chip, mouse ROR1-His as analyte, 1:1 model
# Procedure: as §1
# T1 sequence (Q9Z139 30-403 limits assumed): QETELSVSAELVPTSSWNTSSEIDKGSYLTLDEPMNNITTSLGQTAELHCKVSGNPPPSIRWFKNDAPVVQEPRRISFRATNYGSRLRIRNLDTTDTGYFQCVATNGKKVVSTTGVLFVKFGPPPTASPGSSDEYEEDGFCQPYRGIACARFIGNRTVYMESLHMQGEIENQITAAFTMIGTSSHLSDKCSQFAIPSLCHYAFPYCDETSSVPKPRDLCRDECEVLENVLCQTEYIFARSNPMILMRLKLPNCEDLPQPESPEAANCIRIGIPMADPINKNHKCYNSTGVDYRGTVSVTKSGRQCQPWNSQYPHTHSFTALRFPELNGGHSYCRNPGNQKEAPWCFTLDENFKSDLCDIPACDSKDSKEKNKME
Kd [3],koff [3],kon [3],Binder,"IC50 (nM), killing of HCC827/ROR1 (+++) cells [4]","IC50 (nM), killing of Jeko-1 (+) cells [4]","IC50 (nM), killing of MDA-MB-231 (+) cells [4]",also measured
91 nM,0.0546 s⁻¹,600000 M⁻¹ s⁻¹,"anti-ROR1 antibody Ab1 in WO2018237335 (positive control) (antibody, human IgG1, kappa, V domains shown, Positive control antibody; also called Abl) VH: QVQLQESGPGLVKPSQTLSLTCTVSGYAFTAYNIHWVRQAPGQGLEWMGSFDPYDGGSSYNQKFKDRLTISKDTSKNQVVLTMTNMDPVDTATYYCARGWYYFDYWGHGTLVTVSS VL: DIVMTQTPLSLPVTPGEPASISCRASKSISKYLAWYQQKPGQAPRLLIYSGSTLQSGIPPRFSGSGYGTDFTLTINNIESEDAAYYFCQQHDESPYTFGEGTKVEIKR",–,–,–,binding result [1]: no binding; binding result [2]: no binding
–,–,–,"ADC-5 (antibody 347 conjugated to compound 9A, n=3.99) (antibody, human IgG1, kappa, V domains shown, linker-drug compound 9A conjugated after TCEP reduction; average drug loading n=3.99 per antibody; sites not stated) VH: QVQLVQSGAEVKKPGSSVKVSCKASGYTFTDYYISWVRQGPGQGLEWMGGINAGNGNTNYAQKFQGRVTITADESTSTAYMELSSLRSEDTAVYYCASPGWDVFDIWGQGTMVTVSS VL: DIQMTQSPSPLSASVGDRVTITCQASQDISNYLNWYQQKPGKAPKLLIYDASNLETGVPSRFSGSGSGTDFTFTISSLQPEDIATYYCQQHEDLPITFGQGTRLEIKR",4.36 nM,58.1 nM,349 nM,–
1.18 nM,0.00273 s⁻¹,2.31e+06 M⁻¹ s⁻¹,"fully human ROR1 antibody 347 (antibody, human IgG1, kappa, V domains shown, Full-length human IgG1/kappa) VH: QVQLVQSGAEVKKPGSSVKVSCKASGYTFTDYYISWVRQGPGQGLEWMGGINAGNGNTNYAQKFQGRVTITADESTSTAYMELSSLRSEDTAVYYCASPGWDVFDIWGQGTMVTVSS VL: DIQMTQSPSPLSASVGDRVTITCQASQDISNYLNWYQQKPGKAPKLLIYDASNLETGVPSRFSGSGSGTDFTFTISSLQPEDIATYYCQQHEDLPITFGQGTRLEIKR",–,–,–,IC50 (nM) (DT3C endocytosis killing on ROR1-CHOK1) [5]: 0.596 nM; EC50 [6]: 0.098 nM; EC50 [7]: 0.094 nM; EC50 [8]: 0.502 nM; Kd [9]: 0.0315 nM; koff [9]: 0.00115 s⁻¹; kon [9]: 3.66e+07 M⁻¹ s⁻¹; Kd [10]: 0.238 nM; koff [10]: 0.000676 s⁻¹; kon [10]: 2.84e+06 M⁻¹ s⁻¹
–,–,–,"ADC-4 (antibody 347 conjugated to compound 9A, n=7.39) (antibody, human IgG1, kappa, V domains shown, linker-drug compound 9A conjugated after TCEP reduction; average drug loading n=7.39 per antibody; sites not stated) VH: QVQLVQSGAEVKKPGSSVKVSCKASGYTFTDYYISWVRQGPGQGLEWMGGINAGNGNTNYAQKFQGRVTITADESTSTAYMELSSLRSEDTAVYYCASPGWDVFDIWGQGTMVTVSS VL: DIQMTQSPSPLSASVGDRVTITCQASQDISNYLNWYQQKPGKAPKLLIYDASNLETGVPSRFSGSGSGTDFTFTISSLQPEDIATYYCQQHEDLPITFGQGTRLEIKR",1.36 nM,17.4 nM,146 nM,–
